Like-named read-outs stand apart in the source and are kept apart here.

The results in this text go back to patent publication US20250243286A1 (SIXPEAKS BIO, published 2025).

Assay [1] concerns the target T1, ActRIIA and ActRIIB (on TGFB/SMAD SBE Reporter HEK293 cells) (human). Description: cell-based or functional assay.
In assay [2] the target is T2, human ActRIIA (human, UniProt P27037 20-135, limits assumed).
T2 construct: antigen in MSD-SET; also called ACVR2A; ActR2A
Description: MSD-SET, preliminary.

Assay [3] concerns the target T3, human ActRIIB (human, UniProt Q13705 19-137, limits assumed).
T3 construct: antigen in MSD-SET; also called ACVR2B; ActR2B
T3 sequence: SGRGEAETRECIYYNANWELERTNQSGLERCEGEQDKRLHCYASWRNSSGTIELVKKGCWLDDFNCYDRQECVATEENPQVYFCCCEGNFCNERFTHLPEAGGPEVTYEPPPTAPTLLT
The assay is described as follows: MSD-SET, preliminary.

For assay [4], the target named is T2, human ActRIIA. Description: MSD-SET.
Assay [5] concerns the target T3, human ActRIIB. Description: MSD-SET.
Assay [6] deals with T2, human ActRIIA. The assay is described as follows: MSD-SET. This is another data set of the same source.
The target of assay [7] is T3, human ActRIIB. The assay is described as follows: MSD-SET. This is another data set of the same source.
Assay [8] concerns the target T1, ActRIIA and ActRIIB (on TGFB/SMAD SBE …). The assay is described as follows: cell-based or functional assay. This is another data set of the same source.
Assay [9] deals with T2, human ActRIIA. Description: MSD-SET, Fab KD over IgG KD.
In assay [10] the target is T3, human ActRIIB. The assay is described as follows: MSD-SET, Fab KD over IgG KD.
In assay [11] the target is T2, human ActRIIA. The assay is described as follows: MSD-SET. The source holds these as a separate data set.
Assay [12] deals with T3, human ActRIIB. Description: MSD-SET. The source holds these as a separate data set.
The target in assay [13] is T1, ActRIIA and ActRIIB (on TGFB/SMAD SBE …). The assay is described as follows: cell-based or functional assay. The source holds these as a separate data set.
Assay [14] concerns the target T3, human ActRIIB. The assay is described as follows: MSD-SET. The source holds these as a separate data set.
Assay [15] concerns the target T2, human ActRIIA. The assay is described as follows: MSD-SET. The source holds these as a separate data set.
Assay [16] addresses T2, human ActRIIA. The assay is described as follows: MSD-SET. This is another data set of the same source.
For assay [17], the target named is T3, human ActRIIB. The assay is described as follows: MSD-SET. This is another data set of the same source.

T2 sequence (P27037 20-135 limits assumed): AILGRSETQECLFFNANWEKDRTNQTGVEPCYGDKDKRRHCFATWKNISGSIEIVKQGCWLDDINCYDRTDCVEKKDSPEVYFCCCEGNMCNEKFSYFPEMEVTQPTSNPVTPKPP

B1: Antibody Bebballesgmias (antibody, V domains shown)
VH: QVQLVQSGAEVKKPGSSVKVSCKASGYKFTSSYINWVRQAPGQGLEWMGTINPVSGSTSYAQKFQGRVTITADTSTSTAYMELSSLRSEDTAVYYCARGGWFDYWGQGTLVTVSS
VL: QSALTQPRSVSGSPGQSVTISCTGTSSDVGSYNYVNWYQQHPGKAPKLMIYGVSKRPRGVPDRFSGSKSGNTASLTISGLQAEDEADYYCGTFAGGSYYGVFGGGTKLTVL
notes: full-length IgG
In [1], B1 yielded an IC50, Activin SMAD RGA of 0.171 nM. In addition, the IC50, Myostatin SMAD RGA in [1] is 0.181 nM. In [1], the IC50, myostatin inhibition (SMAD RGA) was 0.171 nM. The molecule further returned an IC90, Activin SMAD RGA in assay [1] of 2.88 nM. Besides, the IC90, Myostatin SMAD RGA in assay [1] amounted to 1.94 nM. Moreover, the Kd with human ActRIIA [2] turned out to be 0.142 nM; with human ActRIIB [3], 0.0167 nM; in the assay with human ActRIIA [4], 0.142 nM; with human ActRIIB [5], 0.0167 nM; with human ActRIIA [6], 0.067 nM; with human ActRIIB [7], 0.0013 nM.

B2: Biiramooscht Fab (Fab, V domains shown)
VH: QVQLVQSGAEVKKPGASVKVSCKASGYTFTSSYINWVRQAPGQGLEWMGTINPVSGSTSYAQKFQGRVTMTRDTSISTAYMELSRLRSDDTAVYYCARGGWFDYWGQGTLVTVSS
VL: QSALTQPASVSGSPGQSITISCTGTSSDVGSYNYVNWYQQHPGKAPKLMIYGVSKRESGVSNRFSGSKSGNTASLTISGLQAEDEADYYCGTFAGGAYYGVFGGGTKLTVL
notes: Fab
In assay [8], B2 registered an IC50, Activin SMAD RGA of 1.58 nM; an IC50, Myostatin SMAD RGA of 2.09 nM; an IC50 fold difference (Fab:IgG), Activin SMAD RGA of 7.4 fold; an IC50 fold difference (Fab:IgG), Myostatin SMAD RGA of 7.9 fold. Further, the “Fold difference (Fab:IgG)” value with human ActRIIA [9] is 5.2 fold. In the assay with human ActRIIB [10], the “Fold difference (Fab:IgG)” value worked out at 4.4 fold. This molecule also showed a Kd with human ActRIIA [11] of 0.145 nM. In the assay with human ActRIIB [12], this molecule registered a Kd of 0.021 nM.

B3: Antibody Ofaschlupfer (antibody, V domains shown)
VH: QVQLVQSGAEVKKPGSSVKVSCKASGYTFTSSYINWVRQAPGQGLEWMGTINAVSGSTSYAQKFQGRVTITADTSTSTAYMELSSLRSEDTAVYYCARGGWFDYWGQGTLVTVSS
VL: QSALTQPRSVSGSPGQSVTISCTGTSSDVGSKNYVNWYQQHPGKAPKLMIYGVSKRESGVPDRFSGSKSGNTASLTISGLQAEDEADYYCGTFAGGKYYGVFGGGTKLTVL
notes: full-length IgG
For B3, in assay [1], the IC50, Myostatin SMAD RGA is 0.7 nM; the IC50 fold difference to bimagrumab, Myostatin SMAD RGA stood at 0.8 fold; the IC90, Activin SMAD RGA was determined as 2.27 nM; the IC90, Myostatin SMAD RGA was determined as 14.4 nM. In assay [1], the IC90 fold difference to bimagrumab, Activin SMAD RGA is 4.1 fold; the IC90 fold difference to bimagrumab, Myostatin SMAD RGA was determined as 0.9 fold; the IC95, Activin SMAD RGA stood at 4.97 nM; the IC95, Myostatin SMAD RGA turned out to be 55.2 nM. Besides, in assay [1], the IC95 fold difference to bimagrumab, Activin SMAD RGA turned out to be 7.6 fold; the IC95 fold difference to bimagrumab, Myostatin SMAD RGA was 1 fold; the IC99, Activin SMAD RGA was determined as 28.1 nM; the IC99, Myostatin SMAD RGA is 1240 nM. Also, in assay [1], the IC99 fold difference to bimagrumab, Activin SMAD RGA is 29.6 fold and the IC99 fold difference to bimagrumab, Myostatin SMAD RGA was determined as 2.2 fold. This molecule showed a Kd in the assay with human ActRIIB [3] of 0.0277 nM. Besides, the Kd with human ActRIIB [5] is 0.0029 nM. Also, in assay [13], the IC50, Activin SMAD RGA turned out to be 0.32 nM; the IC50 fold difference to bimagrumab, Activin SMAD RGA turned out to be 1 fold; the IC90, Activin SMAD RGA came out at 3.02 nM; the IC90 fold difference to bimagrumab, Activin SMAD RGA worked out at 2.1 fold. In [13], this molecule had an IC95, Activin SMAD RGA of 7.07 nM; an IC95 fold difference to bimagrumab, Activin SMAD RGA of 21.8 fold; an IC99, Activin SMAD RGA of 47.8 nM; an IC99 fold difference to bimagrumab, Activin SMAD RGA of 147 fold. In addition, binding with human ActRIIB [14] was characterised by a dissociation constant (Kd) of 0.0029 nM.

B4: Rippla Fab (Fab, V domains shown)
VH: QVQLVQSGAEVRKPGASVKVSCKASGYTFTSSYINWVRQAPGQGLEWMGTINPVSGSTSYAQKFQGRVTMTRDTSISTAYMELSRLRSDDTAVYYCARGGWFDYWGQGTLVTVSS
VL: QSALTQPASVSGSPGQSITISCTGTSSDVGSYNRVNWYQQHPGKAPKLMIYGVSKRESGVSNRFSGSKSGNTASLTISGLQAEDEADYYCGTFAGGRYYGVFGGGTKLTVL
notes: Fab
With B4, in assay [8], the IC50, Activin SMAD RGA was 0.4 nM; the IC50, Myostatin SMAD RGA is 0.78 nM; the IC50 fold difference (Fab:IgG), Activin SMAD RGA was 4.6 fold; the IC50 fold difference (Fab:IgG), Myostatin SMAD RGA amounted to 5.1 fold. For the same molecule, in the assay with human ActRIIA [9], the “Fold difference (Fab:IgG)” value came to 3.8 fold. For the same molecule, the “Fold difference (Fab:IgG)” value in the assay with human ActRIIB [10] amounted to 1.1 fold. For the same molecule, the Kd in the assay with human ActRIIA [11] is 0.157 nM. The molecule also showed a Kd in the assay with human ActRIIB [12] of 0.006 nM.

B5: Fasnetsküchla Fab (Fab, V domains shown)
VH: QVQLVQSGAEVKKPGASVKVSCKASGYTFTSSYINWVRQAPGQGLEWMGTINAVSGSTSYAQKFQGRVTMTRDTSISTAYMELSRLRSDDTAVYYCARGGWFDYWGQGTLVTVSS
VL: QSALTQPASVSGSPGQSITISCTGTSSDVGSANYVNWYQQHPGKAPKPMIYGVSRRPSGVSNRFSGSKSGNTASLTISGLQAEDEADYYCGTFAGGKYYGVFGGGTKLTVL
notes: Fab
In assay [8], B5 yielded an IC50, Activin SMAD RGA of 1.21 nM; an IC50, Myostatin SMAD RGA of 2.32 nM; an IC50 fold difference (Fab:IgG), Activin SMAD RGA of 2.8 fold; an IC50 fold difference (Fab:IgG), Myostatin SMAD RGA of 4.8 fold. Besides, the “Fold difference (Fab:IgG)” value with human ActRIIA [9] worked out at 3.9 fold. The “Fold difference (Fab:IgG)” value with human ActRIIB [10] is 3.1 fold. In addition, in the assay with human ActRIIA [11], the affinity, expressed as Kd, was 0.114 nM. In addition, the Kd with human ActRIIB [12] was 0.026 nM.

B6: Antibody Schwardamaga (antibody, V domains shown)
VH: QVQLVQSGAEVKKPGSSVKVSCKASGYTFTSSYINWVRQAPGQGLEWMGTINAVSGSTSYAQKFQGRVTITADTSTSTAYMELSSLRSEDTAVYYCARGGWFDYWGQGTLVTVSS
VL: QSALTQPRSVSGSPGQSVTISCTGTSSDVGSANYVNWYQQHPGKAPKPMIYGVSRRPSGVPDRFSGSKSGNTASLTISGLQAEDEADYYCGTFAGGKYYGVFGGGTKLTVL
notes: full-length IgG
With B6, in assay [1], the IC50, Myostatin SMAD RGA came to 0.75 nM; the IC50 fold difference to bimagrumab, Myostatin SMAD RGA worked out at 0.7 fold; the IC90, Activin SMAD RGA was found to be 5.34 nM; the IC90, Myostatin SMAD RGA came to 14.7 nM. Besides, in assay [1], the IC90 fold difference to bimagrumab, Activin SMAD RGA came out at 1.8 fold; the IC90 fold difference to bimagrumab, Myostatin SMAD RGA is 0.9 fold; the IC95, Activin SMAD RGA is 14.2 nM; the IC95, Myostatin SMAD RGA amounted to 41.5 nM. In assay [1], this molecule returned an IC95 fold difference to bimagrumab, Activin SMAD RGA of 2.7 fold; an IC95 fold difference to bimagrumab, Myostatin SMAD RGA of 1.3 fold; an IC99, Activin SMAD RGA of 124 nM; an IC99, Myostatin SMAD RGA of 425 nM. Also, in assay [1], the IC99 fold difference to bimagrumab, Activin SMAD RGA stood at 6.7 fold and the IC99 fold difference to bimagrumab, Myostatin SMAD RGA stood at 6.3 fold. The molecule further had a Kd with human ActRIIB [3] of 0.0293 nM. This molecule showed a Kd in the assay with human ActRIIA [4] of 0.0404 nM. Moreover, the affinity in the assay with human ActRIIB [5], expressed as Kd, was 0.0129 nM. Also, in assay [13], the IC50, Activin SMAD RGA was 0.46 nM; the IC50 fold difference to bimagrumab, Activin SMAD RGA is 0.7 fold; the IC90, Activin SMAD RGA was determined as 5.09 nM; the IC90 fold difference to bimagrumab, Activin SMAD RGA amounted to 0.8 fold. In [13], the IC95, Activin SMAD RGA was 12.8 nM; the IC95 fold difference to bimagrumab, Activin SMAD RGA was found to be 39.3 fold; the IC99, Activin SMAD RGA came out at 99 nM; the IC99 fold difference to bimagrumab, Activin SMAD RGA was 305 fold. Binding with human ActRIIA [15] was put at a Kd of 0.0404 nM. Moreover, in the assay with human ActRIIB [14], the Kd came to 0.0129 nM.

B7: Antibody Ochsamaulsalat (antibody, V domains shown)
VH: QVQLVQSGAEVKKPGASVKVSCKASGYTFTSSYINWVRQAPGQGLEWMGTINAVSGSTSYAQKFQGRVTMTRDTSISTAYMELSRLRSDDTAVYYCARGGWFDYWGQGTLVTVSS
VL: QSALTQPASVSGSPGQSITISCTGTSSDVGSRNYVNWYQQHPGKAPKLMIYGVSKRESGVSNRFSGSKSGNTASLTISGLQAEDEADYYCGTFAGGDYYGVFGGGTKLTVL
notes: full-length IgG
Regarding B7, in assay [8], the IC50, Activin SMAD RGA amounted to 0.43 nM. Besides, the IC50, Myostatin SMAD RGA is 0.55 nM in assay [8] and 0.653 nM in assay [1]. For the same molecule, in assay [1], the IC90, Activin SMAD RGA was 2.51 nM. This molecule showed an IC90, Myostatin SMAD RGA in assay [1] of 5.59 nM. For the same molecule, the Kd with human ActRIIA [11] worked out at 0.02 nM; in the assay with human ActRIIB [12] it was 0.01 nM; with human ActRIIA [16] it was 0.02 nM; in the assay with human ActRIIB [17], 0.01 nM; with human ActRIIA [6] it was 0.0232 nM; in the assay with human ActRIIB [7], 0.0082 nM.
